Measurements from publication PMC2413239.

Molecular target: X. laevis FcRγ subunit, c-myc-tagged (X. laevis)

Substance “XFL1.7-HA with its own TM1 region (X. laevis XFL1.7, extracellular plus transmembrane part) (domain or fragment)” has a surface expression of XFL1.7-HA on transiently transfected 293T cells (anti-HA surface staining, flow cytometry), alone against co-transfected with FcRγ of 2 fold.
